pKd: −log10 of the molar value.
Legend:
[1] = target: linked dimers of the gp120 V1/V2 domain; experiment: SPR
[2] = target: Env of HIV-1 strain 0439 (pseudovirus) (HIV-1); experiment: cell-based or functional assay
[3] = target: Env of HIV-1 strain 3873 (pseudovirus) (HIV-1); experiment: cell-based or functional assay
[4] = target: Env of HIV-1 strain 398 (pseudovirus) (HIV-1); experiment: cell-based or functional assay
[5] = target: Env of HIV-1 strain 6322 (pseudovirus) (HIV-1); experiment: cell-based or functional assay
[6] = target: Env of HIV-1 strain 6405 (pseudovirus) (HIV-1); experiment: cell-based or functional assay
[7] = target: Env of HIV-1 strain 6471 (pseudovirus) (HIV-1); experiment: cell-based or functional assay
[8] = target: Env of HIV-1 strain 6631 (pseudovirus) (HIV-1); experiment: cell-based or functional assay
[9] = target: Env of HIV-1 strain 7165.18 (pseudovirus) (HIV-1); experiment: cell-based or functional assay
[10] = target: Env of HIV-1 strain A03349M1 (pseudovirus) (HIV-1); experiment: cell-based or functional assay
[11] = target: Env of HIV-1 strain BG 1168 (pseudovirus) (HIV-1); experiment: cell-based or functional assay
[12] = target: Env of HIV-1 strain CNE30 (pseudovirus) (HIV-1); experiment: cell-based or functional assay
[13] = target: Env of HIV-1 strain CNE4 (pseudovirus) (HIV-1); experiment: cell-based or functional assay
[14] = target: Env of HIV-1 strain CNE56 (pseudovirus) (HIV-1); experiment: cell-based or functional assay
[15] = target: Env of HIV-1 strain JRFL (pseudovirus) (HIV-1); experiment: cell-based or functional assay
[16] = target: Env of HIV-1 strain QH0515 (pseudovirus) (HIV-1); experiment: cell-based or functional assay
[17] = target: Env of HIV-1 strain QH209 (pseudovirus) (HIV-1); experiment: cell-based or functional assay
[18] = target: Env of HIV-1 strain RHPA (pseudovirus) (HIV-1); experiment: cell-based or functional assay
[19] = target: Env of HIV-1 strain T251-18 (pseudovirus) (HIV-1); experiment: cell-based or functional assay
[20] = target: Env of HIV-1 strain X2088 (pseudovirus) (HIV-1); experiment: cell-based or functional assay
[21] = target: Env of HIV-1 strain ZM135 (pseudovirus) (HIV-1); experiment: cell-based or functional assay
[22] = target: 1JO8-ZM109 V1V2 scaffold; experiment: ELISA, PG9 dilution series
[23] = target: epitope-scaffold 1VH8_C; experiment: ELISA, PG9 dilution series
[24] = target: epitope-scaffold 2ZJR_A; experiment: ELISA, PG9 dilution series
[25] = target: epitope-scaffold 2ZJR_B; experiment: ELISA, PG9 dilution series
[26] = target: gp120 of HIV-1 strain 16055, full length (HIV-1); experiment: ELISA, PG9 dilution series
[27] = target: 1JO8-ZM109 V1V2 scaffold; experiment: ELISA, antibody dilution series on the scaffold
[28] = target: 1X3E; experiment: ELISA, antibody dilution series on the scaffold
[29] = target: epitope-scaffold 2ZJR_A; experiment: ELISA, antibody dilution series on the scaffold
[30] = target: epitope-scaffold 1VH8_C; experiment: ELISA, antibody dilution series on the scaffold after large-scale expression

monoclonal antibody PG9
pKd [1]: > 6.00 | neutralization IC50, Env-pseudovirus, TZM-bl cells [2]: > 50 µg/mL | neutralization IC50, Env-pseudovirus, TZM-bl cells [3]: > 50 µg/mL | neutralization IC50, Env-pseudovirus, TZM-bl cells [4]: > 50 µg/mL | neutralization IC50, Env-pseudovirus, TZM-bl cells [5]: > 50 µg/mL | neutralization IC50, Env-pseudovirus, TZM-bl cells [6]: > 50 µg/mL | neutralization IC50, Env-pseudovirus, TZM-bl cells [7]: > 50 µg/mL | neutralization IC50, Env-pseudovirus, TZM-bl cells [8]: > 50 µg/mL | neutralization IC50, Env-pseudovirus, TZM-bl cells [9]: > 50 µg/mL | neutralization IC50, Env-pseudovirus, TZM-bl cells [10]: > 50 µg/mL | neutralization IC50, Env-pseudovirus, TZM-bl cells [11]: > 50 µg/mL | neutralization IC50, Env-pseudovirus, TZM-bl cells [12]: > 50 µg/mL | neutralization IC50, Env-pseudovirus, TZM-bl cells [13]: > 50 µg/mL | neutralization IC50, Env-pseudovirus, TZM-bl cells [14]: > 50 µg/mL | neutralization IC50, Env-pseudovirus, TZM-bl cells [15]: > 50 µg/mL | neutralization IC50, Env-pseudovirus, TZM-bl cells [16]: > 50 µg/mL | neutralization IC50, Env-pseudovirus, TZM-bl cells [17]: > 50 µg/mL | neutralization IC50, Env-pseudovirus, TZM-bl cells [18]: > 50 µg/mL | neutralization IC50, Env-pseudovirus, TZM-bl cells [19]: > 50 µg/mL | neutralization IC50, Env-pseudovirus, TZM-bl cells [20]: > 50 µg/mL | neutralization IC50, Env-pseudovirus, TZM-bl cells [21]: > 50 µg/mL | EC50 (read off the curve) [22]: 0.03 µg/mL | EC50 (read off the curve) [23]: 0.03 µg/mL | EC50 (read off the curve) [24]: 0.01 µg/mL | EC50 (read off the curve) [25]: 0.01 µg/mL | EC50 (read off the curve) [26]: 0.004 µg/mL | EC50 (read off the curve) [27]: 0.5 µg/mL | EC50 (read off the curve) [28]: 1 µg/mL | EC50 (read off the curve) [29]: 0.3 µg/mL | EC50 (read off the curve) [30]: 0.8 µg/mL
